Measured values reported in PMC8567585.

molecular target: His-OsbR (oxidative stress response and biofilm formation regulator, CV_3905, MarR family) (Chromobacterium violaceum); experiment: non-reducing SDS-PAGE (covalent dimers after oxidation); purified His-OsbR incubated with the oxidants TBHP, CHP or H2O2 at 0.1 and 1 mM, room temperature, alkylated with 100 mM NEM for 2 h, non-reducing SDS-PAGE, Coomassie staining; monomer to covalent dimer; settings: not given

stoichiometry N | Substance
2 | His-OsbR (oxidative stress response and biofilm formation regulator, CV_3905, MarR family) (natural protein)

molecular target: T1, His-OsbR (Chromobacterium violaceum ATCC 12472) (UniProt Q7NR79); experiment: EMSA; settings: EMSA with 32P-labeled PCR probes and reduced His-OsbR; buffer, salt, pH and temperature not given (refers to earlier papers); CHP pretreatment at room …
T1 sequence: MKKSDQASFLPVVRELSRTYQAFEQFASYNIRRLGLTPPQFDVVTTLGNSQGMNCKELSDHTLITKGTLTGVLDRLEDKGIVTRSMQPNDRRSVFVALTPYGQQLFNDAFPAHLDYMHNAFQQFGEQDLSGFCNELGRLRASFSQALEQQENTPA

Substance | binding
ATCGGGATGCCCAGCACCGCGAACATCATCCAGACCATGAAGCAGAGGGTGAAAGCCAGCGTGCTGCTGGCCAGCACGCTGTAGCGTTTGAATGTCGGGGAAGTCATGGCGCCATATCCATGGAGTGGTCATGGCTACCACGATAAGCGACGGCGGCGCGCGCCGATATTCGTCTGTCGCAGGACTGTCAGTCTGCCAACGGACGAGGCGGATTAACCCTTACGGCTGGCGCCGGCTACTCCCAATGGGGGAGAGTCA (double strand) [narK1 promoter] | no binding
CCTCGTAAAAGCGGATGGCGCGGGTGGTGATGTCGAACTCCTGCGCGAGTTCGGTGATGTTGAAAACCTGTTCGCCCATGCGTCTGTCCCTTTATCTTCCCGCTGCGGCCACGCGCGCCACAGTCGGGTGCTTTTGCATTCATTGTCTGTTGACGTTGACGTAAACGTCAAGTTATCGTGATCGAAAGTAGAGCAAACAGTCCAGGAGAAGCAGATGAGCCAGAAAATCGGCGTGGTGGGCGCGGGCACGATGGGCAACGGCATCGCCCAGGTCTTCGCGATGAAGGGTTTCGACG (double strand) [CV_2087 promoter] | binds
CTCGCTGGCCGATCTGGGACGCGGCCCGGTGCGGGCGGCCGCCTGATCGCGGTTTCGCGCCCGCTTGGCGCGGGCGCGTCGCGGTTCCGCATAATAATAAATTGCTTGCAATTAAATAGTGCACTATTTATTATGCGGCCATGGAACAAGAAAACACGTGCCCGCCGCAGGACGCGCTTTTGCGGCTGGACCAGCAACTCTGCTTCGCGCTGTATTCCGCC (double strand) [ohrR promoter] | no binding
GACCAAGTGATAGACGCCGGCACGCTGCGCGCGGTGTACGGCGTGAACGGCCGGGTGGAGCGCTGCACGCAGGGCGTGCCCCACGTGCTGGTGGACGGCCTGGCCGCAGGCTGAGCGCCGCGGCGGGGCGGCGCTCGCCGTCCCGCCCGATTGAAATCTTCACTCCCTCGCAAGAATGCGATTGAAATTGATATTCAATCGCATTTATGATGTCAGCCTCCGCTCAGGAGCCGCCCAGGCGGCCAAAACCAATAACAGGCAGACATCCTCATGACCGAGAAGCTTTAGGCC (double strand) [cbaF promoter] | no binding
GACCATACTAGACAGCTACGCCACCTTCAGCGCCATCGACCGCCACAGCGAAAGCCGCCAGAAACATCCCTTCGTCGCGCAATTGCTGCGCCGCTATCCGCAAATCACCACGCTG (double strand) [CV_0208 coding region] | no binding
TTGGATCCTGCCGGAGCGGAATGCAACTGGACGATATCGCCGGATTGAGGCAGTCGCTGTGCGATCTGCGCGACCGGCTGCTGCAATGAACCCGTCAGGGTTTTGATAGTTAGATAGTGCACTATTAAATAGCTCATTATTTTAATCGCAACGGCGTCAAGCCAAGGAGAGCCAGATGAACCCTCTGCAAAAAGTACTGTATACCGCCGAAGCCACCGCCTGCAGTAAT (double strand) [ohrA promoter] | binds
